Data taken from US20140087995A1 (published 2014).
Numbered stars: 1 amine (or outer) side, 2 acyl side, 3 side chain; on linkers, the order of the positions; unused ones are H or OH. Bridge positions count the residues as written; N and C are the ends. * marks the point of attachment. C20 diacid = O=C(O)CCCCCCCCCCCCCCCCCCC(=O)*; γGlu = O=C(O)[C@H](CCC(=O)[*:2])N[*:1]

Tests used:
[1] = target: T1, human calcitonin receptor (human, UniProt P30988 25-474); assay: ratio IC50 human calcitonin receptor / IC50 human amylin receptor
T1 construct: whole, on cells; Cell membranes of a stably transfected BHK cell line (Assay VII); also called hCTR; hCT
T1 sequence (looked up): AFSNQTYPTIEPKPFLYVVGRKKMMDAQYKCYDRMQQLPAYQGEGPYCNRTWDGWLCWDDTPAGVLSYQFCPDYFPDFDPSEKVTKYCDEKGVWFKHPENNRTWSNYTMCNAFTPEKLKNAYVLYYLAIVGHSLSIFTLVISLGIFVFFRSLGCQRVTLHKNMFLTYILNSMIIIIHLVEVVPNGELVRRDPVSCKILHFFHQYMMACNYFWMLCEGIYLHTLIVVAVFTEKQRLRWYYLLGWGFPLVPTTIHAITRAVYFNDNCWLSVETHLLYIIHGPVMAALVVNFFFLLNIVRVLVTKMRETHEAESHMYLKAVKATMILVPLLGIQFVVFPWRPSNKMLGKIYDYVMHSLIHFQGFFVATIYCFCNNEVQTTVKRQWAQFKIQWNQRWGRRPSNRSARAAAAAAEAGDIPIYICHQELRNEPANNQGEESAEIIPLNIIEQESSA
Experimental: The resulting pellet was resuspended, homogenized and centrifuged (20.000 rpm, 15 min) in a buffer containing 20 mM Na-HEPES and 0.1 mM EDTA (pH 7.4, buffer 2). The resulting pellet was resuspended in buffer 2 and protein concentration was measured (BCA protein Assay, Pierce). The homogenate was kept cold during the whole procedure. The membranes were kept at −80° C. until use. The assay was performed in a 384 well Optiplate (PerkinElmer) in a total volume of 40 ul. Membranes were mixed with SPA beads. Final concentration of membranes 35 ng/μL final and SPA beads was 0.05 mg/well. Test-compounds were dissolved in DMSO and further diluted in assay buffer (50 mM Hepes, pH 7.4, 1 mM CaCl2, 5 mM MgCl₂, 0.1% OA and 0.02% Tween20). […] The final mixture was incubated with shaking at 400 rpm for 120 min at 25° C. prior to centrifugation (1500 rpm, 10 min). Samples were analyzed on TopCounter™ (Packard). The IC₅₀ was calculated using (one site binding competition analysis) GraphPad Prism5 as a measure of receptor affinity.
Membranes were prepared in the following way; the cells were rinsed with PBS and incubated with Versene for approximately 5 min before harvesting. The cells were flushed with PBS and the cell-suspension was centrifuged for 5 min at 1000 rpm. Cells were homogenized (Ultrathurrax) in a buffer containing 20 mM Na-HEPES and 10 mM EDTA (pH 7.4) and centrifuged at 20.000 rpm for 15 min. The resulting pellet was resuspended, homogenized and centrifuged (20.000 rpm, 15 min) in a buffer containing 20 mM Na-HEPES and 0.1 mM EDTA (pH 7.4, buffer 2). The resulting pellet was resuspended in buffer 2 and protein concentration was measured (BCA protein Assay, Pierce). The homogenate was kept cold during the whole procedure. The membranes were kept at −80° C. until use. Assay was performed in a 384 well Optiplate (PerkinElmer) in a total volume of 40 ul. Membranes were mixed with SPA beads.

rat calcitonin receptor [2] = target: T2, rat calcitonin receptor (rat, UniProt P32214 25-516); assay: ratio IC50 rat calcitonin receptor / IC50 rat amylin receptor
T2 construct: whole, on cells; Cell membranes of transiently transfected BHK tk'ts 13 cells (Assay VIII); also called rCTR; rCT
T2 sequence (looked up): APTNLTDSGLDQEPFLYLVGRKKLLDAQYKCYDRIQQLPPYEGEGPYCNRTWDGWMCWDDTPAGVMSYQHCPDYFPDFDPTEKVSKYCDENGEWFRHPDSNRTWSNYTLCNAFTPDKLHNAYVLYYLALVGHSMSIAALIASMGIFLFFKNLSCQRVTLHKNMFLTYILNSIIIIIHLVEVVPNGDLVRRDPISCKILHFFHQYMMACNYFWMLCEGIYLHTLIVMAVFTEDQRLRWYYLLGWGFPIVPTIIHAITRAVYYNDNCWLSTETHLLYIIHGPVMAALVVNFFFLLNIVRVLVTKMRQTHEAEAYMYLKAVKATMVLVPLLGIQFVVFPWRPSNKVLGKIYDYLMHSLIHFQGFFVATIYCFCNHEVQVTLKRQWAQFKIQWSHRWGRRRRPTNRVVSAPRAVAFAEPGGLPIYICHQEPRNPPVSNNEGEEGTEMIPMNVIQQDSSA

[3] = target: T3, rat amylin receptor (rat calcitonin receptor + rat RAMP 3) (rat, UniProt P32214 25-516; Q9JJ73 23-147); assay: SPA competition vs 125I-rat amylin, membranes with rat CTR + rat RAMP3 (Assay VI)
T3 construct: whole, on cells; Cell membranes of transiently transfected BHK tk'ts 13 cells (Assay VI); also called rAmylin-R; rat amylin 3(a) receptor
T3 sequence (looked up) 1: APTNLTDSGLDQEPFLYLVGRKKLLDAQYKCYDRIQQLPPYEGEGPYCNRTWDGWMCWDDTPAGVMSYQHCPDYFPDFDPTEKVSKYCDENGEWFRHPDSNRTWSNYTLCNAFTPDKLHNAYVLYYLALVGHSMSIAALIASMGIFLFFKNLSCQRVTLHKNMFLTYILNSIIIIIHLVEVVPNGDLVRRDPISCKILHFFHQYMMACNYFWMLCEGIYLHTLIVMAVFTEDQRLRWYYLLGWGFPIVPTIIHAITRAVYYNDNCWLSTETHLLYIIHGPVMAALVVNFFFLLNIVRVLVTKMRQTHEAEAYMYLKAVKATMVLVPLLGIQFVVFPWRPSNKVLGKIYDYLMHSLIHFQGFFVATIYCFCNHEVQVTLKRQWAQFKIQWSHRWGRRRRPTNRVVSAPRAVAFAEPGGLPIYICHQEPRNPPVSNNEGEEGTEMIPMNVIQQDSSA
T3 sequence (looked up) 2: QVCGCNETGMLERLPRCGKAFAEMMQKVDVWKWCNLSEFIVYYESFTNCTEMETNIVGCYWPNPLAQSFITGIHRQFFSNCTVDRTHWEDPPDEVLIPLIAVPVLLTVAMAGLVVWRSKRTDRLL

rat calcitonin receptor [4] = target: T2, rat calcitonin receptor; assay: SPA competition vs 125I-calcitonin, membranes with rat CTR (Assay VIII)

Binder | Ratio hCT/hAmylin binding [1] | Ratio rCT/rAmylin binding (rat calcitonin receptor [2]) | IC50 [3] | IC50 (rat calcitonin receptor [4])
{C20 diacid-γGlu-γGlu}-KCNTATCATQRLAEFLRHSSPNFGAIPSSTNVGSNTY-NH2 (disulfide 2-7; SMILES CC[C@H](C)[C@H](NC(=O)[C@H](C)NC(=O)CNC(=O)[C@H](Cc1ccccc1)NC(=O)[C@H](CC(N)=O)NC(=O)[C@@H]1CCCN1C(=O)[C@H](CO)NC(=O)[C@H](CO)NC(=O)[C@H](Cc1c[nH]cn1)NC(=O)[C@H](CCCNC(=N)N)NC(=O)[C@H](CC(C)C)NC(=O)[C@H](Cc1ccccc1)NC(=O)[C@H](CCC(=O)O)NC(=O)[C@H](C)NC(=O)[C@H](CC(C)C)NC(=O)[C@H](CCCNC(=N)N)NC(=O)[C@H](CCC(N)=O)NC(=O)[C@@H](NC(=O)[C@H](C)NC(=O)[C@@H]1CSSC[C@H](NC(=O)[C@H](CCCCN)NC(=O)CC[C@H](NC(=O)CC[C@H](NC(=O)CCCCCCCCCCCCCCCCCCC(=O)O)C(=O)O)C(=O)O)C(=O)N[C@@H](CC(N)=O)C(=O)N[C@@H]([C@@H](C)O)C(=O)N[C@@H](C)C(=O)N[C@@H]([C@@H](C)O)C(=O)N1)[C@@H](C)O)C(=O)N1CCC[C@H]1C(=O)N[C@@H](CO)C(=O)N[C@@H](CO)C(=O)N[C@H](C(=O)N[C@@H](CC(N)=O)C(=O)N[C@H](C(=O)NCC(=O)N[C@@H](CO)C(=O)N[C@@H](CC(N)=O)C(=O)N[C@H](C(=O)N[C@@H](Cc1ccc(O)cc1)C(N)=O)[C@@H](C)O)C(C)C)[C@@H](C)O, Acylated analogue of human amylin; also called compound 15) | 26 |  |  | 
KCNTATCATQRLANFLRHSSPNFGAIPSSTNVGHNTY (C20 diacid-gGlu on alpha-amino of the N-terminal residue; Cys2-Cys7 disulfide; C-terminal amide (as human amylin), Acylated analogue of human amylin; also called compound 40) [N^α1-[(4S)-4-carboxy-4-(19-carboxynonadecanoylamino)butanoyl]-[Arg17,Pro21,Pro27,His34]-h-amylin] | 31.1 | 46.2 | 1.5 nM | 69.2 nM
{C20 diacid-γGlu}-KCNTATCATQRLAHFLRHSSPNFGAIPSSTNVGSETY-NH2 (disulfide 2-7; SMILES CC[C@H](C)[C@H](NC(=O)[C@H](C)NC(=O)CNC(=O)[C@H](Cc1ccccc1)NC(=O)[C@H](CC(N)=O)NC(=O)[C@@H]1CCCN1C(=O)[C@H](CO)NC(=O)[C@H](CO)NC(=O)[C@H](Cc1c[nH]cn1)NC(=O)[C@H](CCCNC(=N)N)NC(=O)[C@H](CC(C)C)NC(=O)[C@H](Cc1ccccc1)NC(=O)[C@H](Cc1c[nH]cn1)NC(=O)[C@H](C)NC(=O)[C@H](CC(C)C)NC(=O)[C@H](CCCNC(=N)N)NC(=O)[C@H](CCC(N)=O)NC(=O)[C@@H](NC(=O)[C@H](C)NC(=O)[C@@H]1CSSC[C@H](NC(=O)[C@H](CCCCN)NC(=O)CC[C@H](NC(=O)CCCCCCCCCCCCCCCCCCC(=O)O)C(=O)O)C(=O)N[C@@H](CC(N)=O)C(=O)N[C@@H]([C@@H](C)O)C(=O)N[C@@H](C)C(=O)N[C@@H]([C@@H](C)O)C(=O)N1)[C@@H](C)O)C(=O)N1CCC[C@H]1C(=O)N[C@@H](CO)C(=O)N[C@@H](CO)C(=O)N[C@H](C(=O)N[C@@H](CC(N)=O)C(=O)N[C@H](C(=O)NCC(=O)N[C@@H](CO)C(=O)N[C@@H](CCC(=O)O)C(=O)N[C@H](C(=O)N[C@@H](Cc1ccc(O)cc1)C(N)=O)[C@@H](C)O)C(C)C)[C@@H](C)O, Acylated analogue of human amylin; also called compound 30) | 23.6 | 36.1 | 3.14 nM | 114 nM
{C20 diacid-γGlu}-KCNTATCATQRLANFLRHSSPNFGAIPSSTPVGSETY-NH2 (disulfide 2-7; SMILES CC[C@H](C)[C@H](NC(=O)[C@H](C)NC(=O)CNC(=O)[C@H](Cc1ccccc1)NC(=O)[C@H](CC(N)=O)NC(=O)[C@@H]1CCCN1C(=O)[C@H](CO)NC(=O)[C@H](CO)NC(=O)[C@H](Cc1c[nH]cn1)NC(=O)[C@H](CCCNC(=N)N)NC(=O)[C@H](CC(C)C)NC(=O)[C@H](Cc1ccccc1)NC(=O)[C@H](CC(N)=O)NC(=O)[C@H](C)NC(=O)[C@H](CC(C)C)NC(=O)[C@H](CCCNC(=N)N)NC(=O)[C@H](CCC(N)=O)NC(=O)[C@@H](NC(=O)[C@H](C)NC(=O)[C@@H]1CSSC[C@H](NC(=O)[C@H](CCCCN)NC(=O)CC[C@H](NC(=O)CCCCCCCCCCCCCCCCCCC(=O)O)C(=O)O)C(=O)N[C@@H](CC(N)=O)C(=O)N[C@@H]([C@@H](C)O)C(=O)N[C@@H](C)C(=O)N[C@@H]([C@@H](C)O)C(=O)N1)[C@@H](C)O)C(=O)N1CCC[C@H]1C(=O)N[C@@H](CO)C(=O)N[C@@H](CO)C(=O)N[C@H](C(=O)N1CCC[C@H]1C(=O)N[C@H](C(=O)NCC(=O)N[C@@H](CO)C(=O)N[C@@H](CCC(=O)O)C(=O)N[C@H](C(=O)N[C@@H](Cc1ccc(O)cc1)C(N)=O)[C@@H](C)O)C(C)C)[C@@H](C)O, Acylated analogue of human amylin; also called compound 28) | 20.5 | 44.9 | 1.22 nM | 54.9 nM
KCNTATCATQRLANFLRHSSPNFGAIPSSTNVGSKTY (C20 diacid-gGlu on alpha-amino of the N-terminal residue; Cys2-Cys7 disulfide; C-terminal amide (as human amylin), Acylated analogue of human amylin; also called compound 34) [N^α1-[(4S)-4-carboxy-4-(19-carboxynonadecanoylamino)butanoyl]-[Arg17,Pro21,Pro27,Lys35]-h-amylin] | 64.4 | 52 | 1.72 nM | 89.2 nM
KCNTATCATQRLANFLRHSSPNFGAIPSSTNVGSETY (C20 diacid-gGlu on alpha-amino of the N-terminal residue; Cys2-Cys7 disulfide; C-terminal amide (as human amylin), Acylated analogue of human amylin; also called compound 23) [N^α1-[(4S)-4-carboxy-4-(19-carboxynonadecanoylamino)butanoyl]-[Arg17,Pro21,Pro27,Glu35]-h-amylin] | 25 | 71.3 | 1.12 nM | 79.9 nM
KCNTATCATQRLAEFLRHSSPNFGAIPSSTNVGSNTY (C20 diacid-gGlu-2xOEG on alpha-amino of the N-terminal residue; Cys2-Cys7 disulfide; C-terminal amide (as human amylin), Acylated analogue of human amylin; also called compound 19) | 36.7 | 93.6 | 1.02 nM | 95.6 nM
KCNTATCATQRLANFLRHSSPNFGAIPSSTNVGRNTY (C20 diacid-gGlu on alpha-amino of the N-terminal residue; Cys2-Cys7 disulfide; C-terminal amide (as human amylin), Acylated analogue of human amylin; also called compound 39) [N^α1-[(4S)-4-carboxy-4-(19-carboxynonadecanoylamino)butanoyl]-[Arg17,Pro21,Pro27,Arg34]-h-amylin] | 29 | 54.5 | 1.77 nM | 96.4 nM
